Biological target: the molecule itself
Experiment: AUC

Question: Does MAGNGGDAALALLLLDRLNQLESKMSGKGQQQQGQTV [isolated LRS peptide (N:210–246)] bind?
Answer: Result: binds
